± gives the standard deviation.

The nature of this data set: protein stability index of a GFP-peptide fusion (GPS, HEK-293T) (PSI 1-6); higher = more stable. The settings on record: c terminus: a fixed tail appended.
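Further: 24-mer peptide tiles fused after GFP, lentivirally expressed, FACS-sorted into six equal bins by GFP/DsRed ratio, decoded by Illumina sequencing, PSI is the read-weighted mean bin number.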

Turning to MWPPDPDPDPDPEPAGGSRPGPAV [CMTM3], the protein stability index is 5.02 ± 0.062 (treatment: DMSO) and 5.124 ± 0.016 (treatment: MLN4924 1 uM, 8 h). For NAAHSLLSTNDKTIKLWKITERDK [PPP2R2C], in that order: 3.68 ± 0.085 and 3.82 ± 0.27.

As to NCPGQYTFSMPSDSHVSSCSEDWV [CD69], the protein stability index by setting is: (treatment: DMSO) 3.8 ± 0.21; (treatment: MLN4924 1 uM, 8 h) 4.06 ± 0.22. For NDIMAYMFGFFFGRTPLIKLSPKK [CDS2], in that order: 2.03 ± 0.31 and 2.08 ± 0.22. For NGSCENSDASSHANAAKHTQDSAR [EHMT1], in that order: 5.27 ± 0.37 and 5.3 ± 0.2. For NHLQTHDPNKMAFGCEECGKKYNT [PLAGL1], in that order: 4.14 ± 0.16 and 4.77 ± 0.27. With NHMYSCRFSRQCVVDKDKRNQCRY [HNF4A], the protein stability index runs as follows: (treatment: DMSO) 2.61 ± 0.057; (treatment: MLN4924 1 uM, 8 h) 2.56 ± 0.074. For NILIYETPRGPDPALLEATGGAAG [KCTD13], in that order: 3.88 ± 0.19 and 3.84 ± 0.45.

In turn, NIPFFPDLQITDQVALLRLTWSEL [NR2F2] showed a protein stability index (treatment: DMSO) of 2.68 ± 0.45 and a protein stability index (treatment: MLN4924 1 uM, 8 h) of 2.12 ± 0.58.

For the sequence NIQAGINENDFYDGAWCAGRNDLQ [CPXM2], the protein stability index (treatment: MLN4924 1 uM, 8 h) amounted to 3.48 ± 0.71. Take NIRSARGNNPNGREAKMICFKSVA [ELOA2]: the protein stability index (treatment: DMSO) amounted to 3.4 ± 0.15 and the protein stability index (treatment: MLN4924 1 uM, 8 h) was 3.34 ± 0.27. Turning to NITVVKGIRLSENVIDRMKESSPS [CHCHD3], the protein stability index is 3.66 ± 0.29 (treatment: DMSO) and 3.51 ± 0.28 (treatment: MLN4924 1 uM, 8 h). For NKKAKRYLLHGLECVVAMHQAQLI [EIF5], in that order: 3.02 ± 0.47 and 2.5 ± 0.4. For NKRLAKYRMRNVHPKPKLVRVLES [CLCN6], in that order: 3.1 ± 0.33 and 3 ± 0.29. For NKTEVTPRLWTTCRDGEVLLRLSK [ACSBG2], in that order: 2.4 ± 0.22 and 2.37 ± 0.21. Consider NLQDLCRIKIRQCIGLQNLKLLDE [ASB7], for which the protein stability index is, setting by setting: (treatment: DMSO) 3.57 ± 0.24; (treatment: MLN4924 1 uM, 8 h) 3.56 ± 0.31. For NNDDDEDEDDEDEDEDEDEDEDED [TAF7L], in that order: 5.57 ± 0.15 and 5.55 ± 0.23.

NNPISEHFHPTVIGESMYGDFEEA [TENT5C] gave a protein stability index (treatment: DMSO) of 4.89 ± 0.28 and a protein stability index (treatment: MLN4924 1 uM, 8 h) of 4.89 ± 0.17. NNQSDLEKEMQKMNPYKIDIGAVY [PRIM1]: the protein stability index came to 3.03 ± 0.24 (treatment: DMSO) and 3.03 ± 0.16 (treatment: MLN4924 1 uM, 8 h). For NPKDCSENIEVKEGGLYFERRPVA [SPSB2], in that order: 4.68 ± 0.17 and 4.76 ± 0.058. For NPQSPPQDSSVTSKRNIKKGAVPR [HDAC6], in that order: 4.99 ± 0.43 and 5.14 ± 0.38. For NQQLRNELQLEQSRAANQEQRAND [CEP70], in that order: 5.48 ± 0.11 and 5.42 ± 0.24. As for NQRMKSKRWQKNNWPKNSNGVTQK [NANOGP8], the protein stability index reads like this: (treatment: DMSO) 3.89 ± 0.44; (treatment: MLN4924 1 uM, 8 h) 4.2 ± 0.42.

For the sequence NQTAELRELLEFTHMYLQSDDEME [P3H4], the protein stability index came out at 4.83 ± 0.19 (treatment: DMSO) and 4.7 ± 0.18 (treatment: MLN4924 1 uM, 8 h). For NQTALHLAAAHGHSEVVEELVSAD [RIPK4], in that order: 5.46 ± 0.082 and 5.36 ± 0.11. Take NRDEVLDNLLAFVCDIRPEIHENY [ATP6V1G1]: the protein stability index reads like this: (treatment: DMSO) 2.49 ± 0.51; (treatment: MLN4924 1 uM, 8 h) 2.71 ± 0.37. For NRQCLCSAESMVEYGTCMCLVKGI [SPRY1], in that order: 3.82 ± 0.28 and 3.83 ± 0.26.

For the sequence NRSLAEACSEGDVNAVRKLLIEGR [ANKRD17], the protein stability index was 4.01 ± 0.26 (treatment: DMSO) and 4.12 ± 0.27 (treatment: MLN4924 1 uM, 8 h). For NSMPVDNRNHNEGMVTRCIIEVLS [CHGB], in that order: 2.77 ± 0.14 and 2.59 ± 0.3. For NSTGGDCFYRGYTSGVAAVQDWYH [SCNN1D], in that order: 2.36 ± 0.16 and 2.43 ± 0.5.

NVPNVCRMYCSDLLNPNLKDTVIC [SPACA3] yielded a protein stability index (treatment: DMSO) of 2.15 ± 0.3 and a protein stability index (treatment: MLN4924 1 uM, 8 h) of 2.31 ± 0.28. Consider NVPRICGVCGDRATGFHFNAMTCE [VDR], for which the protein stability index is, setting by setting: (treatment: DMSO) 2.83 ± 0.39; (treatment: MLN4924 1 uM, 8 h) 2.73 ± 0.2. For NYEKLSRGLRYYYDKNIIHKTAGK [ETS1], in that order: 2.69 ± 0.15 and 2.89 ± 0.43. For NYGKILVEKNEHCIENNIDLQVNR [R3HDM1], in that order: 3.56 ± 0.33 and 3.75 ± 0.19. For NYMKILLKVGGILVMPIEDQLTQI [PCMTD1], in that order: 3.08 ± 0.75 and 2.88 ± 0.8. As to PAAPTPESFTVHFLPLNSAQTLHH [DNAAF3], the protein stability index worked out at 2.87 ± 0.22 (treatment: DMSO) and 3.02 ± 0.23 (treatment: MLN4924 1 uM, 8 h). As to PAEDPDDYDDGFSMKHTATARFQR [SMARCE1], the protein stability index reads like this: (treatment: DMSO) 4.81 ± 0.13; (treatment: MLN4924 1 uM, 8 h) 4.89 ± 0.17.
